This assay concerns the target T1, proliferating cell nuclear antigen (PCNA) (human, UniProt P12004 1-261).
T1 construct: Endogenous intracellular protein, immunoprecipitated from HT29 cell lysate
Description: not described.

The values below come from patent US20160303183A1 (WUHAN YICHENG BIOTECH, published 2016).

T1 sequence (P12004 whole entry): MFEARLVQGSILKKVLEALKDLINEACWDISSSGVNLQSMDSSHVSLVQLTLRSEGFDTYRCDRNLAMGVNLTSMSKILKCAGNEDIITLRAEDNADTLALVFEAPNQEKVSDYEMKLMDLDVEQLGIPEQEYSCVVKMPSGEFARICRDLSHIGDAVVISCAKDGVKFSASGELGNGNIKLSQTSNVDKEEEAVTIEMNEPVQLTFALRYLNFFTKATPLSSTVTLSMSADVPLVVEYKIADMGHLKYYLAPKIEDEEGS

B1: polypeptide P15 (peptide)
peptide: MPYSTELIFYIEMDP
notes: 15-residue polypeptide fragment
As to B1, the binding result was “binds”.
